Numbering of substitutions follows the chain as printed. Numbers in names are those of the source.

The chains are these.
T1: GST-ICAT (a.a. Met1-Gln81) (UniProt Q9NSA3 1-81)
T1 sequence (looked up): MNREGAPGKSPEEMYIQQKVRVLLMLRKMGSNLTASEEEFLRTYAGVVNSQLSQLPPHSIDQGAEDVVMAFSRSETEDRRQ

T2: full-length β-catenin E462K, untagged (human, UniProt P35222 1-781, E462K)
T2 sequence (looked up): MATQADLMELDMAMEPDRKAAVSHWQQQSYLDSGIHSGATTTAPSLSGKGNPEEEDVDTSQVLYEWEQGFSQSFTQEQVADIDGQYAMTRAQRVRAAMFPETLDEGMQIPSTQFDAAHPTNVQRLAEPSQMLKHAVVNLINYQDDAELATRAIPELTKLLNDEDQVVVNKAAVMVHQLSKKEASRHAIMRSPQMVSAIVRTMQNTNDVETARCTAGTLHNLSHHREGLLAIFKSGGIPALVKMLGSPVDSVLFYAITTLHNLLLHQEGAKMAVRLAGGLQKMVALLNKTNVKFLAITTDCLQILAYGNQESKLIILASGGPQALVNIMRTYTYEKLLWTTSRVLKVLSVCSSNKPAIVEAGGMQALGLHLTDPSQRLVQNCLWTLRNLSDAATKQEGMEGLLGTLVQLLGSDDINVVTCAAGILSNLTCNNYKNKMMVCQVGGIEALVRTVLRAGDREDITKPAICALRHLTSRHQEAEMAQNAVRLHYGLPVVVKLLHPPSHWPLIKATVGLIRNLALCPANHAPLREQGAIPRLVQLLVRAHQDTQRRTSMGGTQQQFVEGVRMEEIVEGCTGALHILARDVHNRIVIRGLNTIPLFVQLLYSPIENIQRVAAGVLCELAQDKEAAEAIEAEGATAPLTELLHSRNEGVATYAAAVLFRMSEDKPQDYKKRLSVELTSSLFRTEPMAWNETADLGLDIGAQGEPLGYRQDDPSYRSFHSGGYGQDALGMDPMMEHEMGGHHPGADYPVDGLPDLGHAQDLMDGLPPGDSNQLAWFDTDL

T3: β-catenin C619Y/E620K (purified, full length, untagged) (human, UniProt P35222 1-781, C619Y | E620K)
T3 sequence (looked up): T2 sequence (looked up) with K462E, C619Y, E620K

B1: full-length β-catenin, untagged, wild type (natural protein, human, UniProt P35222 1-781, looked up)
chain: T2 sequence (looked up) with K462E
B2: β-catenin D624K/E626K/E628K (purified, full length, untagged) (natural protein)
chain: T2 sequence (looked up) with K462E, D624K, E626K, E629K
B3: GST-tagged AXIN1 CBD peptide, wild type (a.a. Cys435-His498) (domain or fragment, human, UniProt O15169-1 435-498, looked up)
chain: CHKLPPAPAWHHFPPRCVDMGCAGLRDAHEENPESILDEHVQRVLRTPGRQSPGPGHRSPDSGH
B4: full-length β-catenin R469H, untagged (natural protein, human, UniProt P35222 1-781, looked up)
chain: T2 sequence (looked up) with K462E, R469H
B5: GST-tagged AXIN1 CBD peptide V475I/L479W (a.a. 435-498) (domain or fragment, human, UniProt O15169-1 435-498, looked up)
chain: B3 chain with V41I, L45W
B6: purified β-catenin E571K (full length, untagged) (natural protein, human, UniProt P35222 1-781, looked up)
chain: T2 sequence (looked up) with K462E, E571K
B7: full-length β-catenin C466Y/A467T, untagged (natural protein, human, UniProt P35222 1-781, looked up)
chain: T2 sequence (looked up) with K462E, C466Y, A467T
B8: GST-tagged TCF4 fragment (a.a. 1–53) (domain or fragment, UniProt Q9NQB0 1-53, looked up)
chain: MPQLNGGGGDDLGANDELISFKDEGEQEEKSSENSSAERDLADVKSSLVNESE
B9: GST-tagged AXIN1 CBD peptide V475I (a.a. 435-498) (domain or fragment, human, UniProt O15169-1 435-498, looked up)
chain: B3 chain with V41I

What all share (test): BLI
Assay [1] deals with B5.
Assay [2] addresses T1, GST-ICAT (a.a. Met1-Gln81).
Assay [3] has as its target B8.
Assay [4] addresses B1.
In assay [5] the target is B1. The source holds these as a separate data set.
The target in assay [6] is T2, full-length β-catenin E462K, untagged.
Assay [7] deals with T3, β-catenin C619Y/E620K (purified, full …).

In the case of B1, in assay [1], the “fold decrease of koff against the wild-type CBD peptide” value is roughly 20 fold and the “half-life of the complex” value was roughly 1 min.
For the molecule B2, the “fold reduction of affinity against wild-type β-catenin” value (shortened to “fold reduction of affinity”) in assay [2] and in assay [3] was roughly 10 fold each time.
In turn, B3 returned a Kd in assay [4] of 1000 nM. That is a single-digit micromolar value.
In the case of B4, the “fold reduction of affinity” value in assay [3] was greater than 10 fold.
As to B5, the Kd in assay [4] worked out at 40 nM.
For the molecule B6, the “fold reduction of affinity” value in assay [3] is roughly 7 fold.
In the case of B7, in assay [3], the “fold reduction of affinity” value is greater than 10 fold.
On to B8, for which the binding result in assay [5], in assay [6] and in assay [7] was “binds” in each case.
Regarding B9, in assay [4], the dissociation constant (Kd) was roughly 450 nM.

These data come from publication PMC12633535 (bioRxiv, 2025).
